Measurements: the supplement of paper PMC7125110
± gives the standard error. This sample holds only a part of the variants without activity.

B1: glmS ribozyme (parent)
chain: AUAAAAGCGCCAGAACUACAGAAAUGUAGUUGACGAGGAGGAGGUUUAUCGAAUUUUCGGCGGAUGCCUCCAAA

Columns and labels:
Conditions in all cases: with glucosamine-6-phosphate
glucosamine-6-phosphate [1] = variants of: B1; assay: self-cleavage kobs at 40 uM GlcN6P; higher = faster cleavage; RNA array
Outline: (§1)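 A hybridised Cy3 probe tracked barcoded ribozyme variants, transcribed in situ by E. coli RNA polymerase on sequenced MiSeq chips, at 37 °C. The variants received 40 μM to 10 mM glucosamine-6-phosphate in HEPES/KCl/Mg(OAc)2 buffer. kobs came from decay fits and kcat and KM from weighted Michaelis–Menten fits.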

glucosamine-6-phosphate [2] = variants of: B1; assay: self-cleavage kobs at 10000 uM GlcN6P; higher = faster cleavage; RNA array
Outline: as §1

glucosamine-6-phosphate [3] = variants of: B1; assay: self-cleavage kobs at 160 uM GlcN6P; higher = faster cleavage; RNA array
Outline: as §1

glucosamine-6-phosphate [4] = variants of: B1; assay: self-cleavage kobs at 2500 uM GlcN6P; higher = faster cleavage; RNA array
Outline: as §1

glucosamine-6-phosphate [5] = variants of: B1; assay: self-cleavage kobs at 640 uM GlcN6P; higher = faster cleavage; RNA array
Outline: as §1

Variant	self-cleavage kobs at 40 uM GlcN6P (glucosamine-6-phosphate [1])	self-cleavage kobs at 10000 uM GlcN6P (glucosamine-6-phosphate [2])	self-cleavage kobs at 160 uM GlcN6P (glucosamine-6-phosphate [3])	self-cleavage kobs at 2500 uM GlcN6P (glucosamine-6-phosphate [4])	self-cleavage kobs at 640 uM GlcN6P (glucosamine-6-phosphate [5])
AUAAAAGCGCCAGAACUACAGAAAUGUAGCUGACGAGGUGGAGGUUUAUCGAAUUUUCGGCGGAUGCAUCCAAA [U30C A39U C68A]	< 1e-05 s⁻¹	< 1e-05 s⁻¹			
AUAAAAGCGCCAGAACUACAGAAAUGUAGAUGACGAGGAGGAGGUUUAUCGAAUUUUCGGCGCAUGCCUCCAAA [U30A G63C]	< 1e-05 s⁻¹	< 1e-05 s⁻¹	< 1e-05 s⁻¹	< 1e-05 s⁻¹	
AUAAAAGCGCCAGAACUACAGAAAUGUAGCUGACGAGGAGGAGGUUUAUCGAAUUUUCGGUGGAUGCCUCCAAA [U30C C61U]	< 1e-05 s⁻¹		< 1e-05 s⁻¹		
AUAAAAGCGCCAGAACUACAGAAAUGUAGCUGACGAGGAGGAGGUUUAUCGAAUUUUCGGAGGAUGCCUCCAAA [U30C C61A]	< 1e-05 s⁻¹	< 1e-05 s⁻¹			
AUAAAAGCGCCAGAACUACAGAAAUGUAGGUGACGAGGAGGAGGUUUAUCGUAAUUUCGGCGGAUGCCUCCAAA [U30G A52U U54A]	< 1e-05 s⁻¹	4.6e-05 ± 1.6e-05 s⁻¹			
AUAAAAGCGCCAGAACUACAGAAAUGUAUUUGACGAGGAGGAGGUUUAACGAAUUUCCGGCGGAUGCCUGCAAA [G29U U49A U57C C70G]	< 1e-05 s⁻¹				
AUAAAAGCGCCAGAACUACAGAAAUGUAGAUGACGAGGAGGAGGUUUAUCGAAUUUUCGGCGGAUGCCGCCAAA [U30A U69G]	< 1e-05 s⁻¹				
AUAAAAGCGCCAGAACUACAGAAAUGUAGAUGACGAGGAGGAGGUUUUUCGAAUUUUCGGCGGAUGCCUCCAAA [U30A A48U]	< 1e-05 s⁻¹	4.05e-05 ± 1.5e-05 s⁻¹			
AUAAAAGCGCCAGAACUACAGAAAUGUAGAUGAUGAGGAGGAGGUUUAUCGAAUUUUCGGCGGAUGCCUCCAAA [U30A C34U]	< 1e-05 s⁻¹		< 1e-05 s⁻¹	< 1e-05 s⁻¹	< 1e-05 s⁻¹
AUAAAAGCGCCAGAACUACAGAAAUGUAGAUGUCGAGGAGUAGGUUUAUCGACUUUUCGACGGAUGCGUCCAAA [U30A A33U G41U A53C G60A C68G]	< 1e-05 s⁻¹	< 1e-05 s⁻¹	< 1e-05 s⁻¹		< 1e-05 s⁻¹
AUAAAAGCGCCAGAACUACAGAAAUGUAGCUGACGAGGAGCAGGUUUAUCGAAUUUUCGGAGGAUGCCUCUAAA [U30C G41C C61A C71U]	< 1e-05 s⁻¹	< 1e-05 s⁻¹			
AUAAAAGCGCCAGAACUACAGAAAUGUAGCUGACAAGGAGGAGGUUUAUCGAAUUUUCGGCGGAUGUCUCCAAA [U30C G35A C67U]	< 1e-05 s⁻¹				
AUAAAAGCGCCAGAACUACAGAAAUGUAUUUGACGAGGAGGAGGUUUAUCGAAUUUUCGGCGCAUGCCUCCAAA [G29U G63C]	< 1e-05 s⁻¹	< 1e-05 s⁻¹			< 1e-05 s⁻¹
AUAAAAGCGCCAGAACUACAGAAAUGUAGAUGACGAGGUGGAGGUUUAUCGAAUUUUCGGCUGAUGCCUCCAAA [U30A A39U G62U]	< 1e-05 s⁻¹				
AUAAAAGCGCCAGAACUACAGAAAUGUAGGUGACGAGGGGGAGGUUUAUGGAAUUUUCGGCGGAUGCGUCCAAA [U30G A39G C50G C68G]	0.00025 ± 6.5e-05 s⁻¹	0.000218 ± 4.7e-05 s⁻¹			
AUAAAAGCGCCAGAACUACAGAAAUGUAGAUGACGAGGUGGAGGUUUAUCGAAUUUUCGGCGGAUGGGUCCAAA [U30A A39U C67G C68G]	0.000113 ± 2.1e-05 s⁻¹	8.62e-05 ± 1.7e-05 s⁻¹			
AUAAAAGCGCCAGAACUACAGAAAUGUAGAUGACGAUGAGGAGUAUUAUCGAAUUUUCGGCGGAUGCCUUCAAA [U30A G37U G44U U45A C70U]	< 1e-05 s⁻¹	< 1e-05 s⁻¹			

Variant	self-cleavage kobs at 40 uM GlcN6P (glucosamine-6-phosphate [1])	self-cleavage kobs at 10000 uM GlcN6P (glucosamine-6-phosphate [2])	self-cleavage kobs at 160 uM GlcN6P (glucosamine-6-phosphate [3])	self-cleavage kobs at 2500 uM GlcN6P (glucosamine-6-phosphate [4])	self-cleavage kobs at 640 uM GlcN6P (glucosamine-6-phosphate [5])
AUAAAAGCGCCAGAACUACAGAAAUGUAGGUGACGAGGGGGAGGUUUAUCGAAUUUUCGGCGGAUGCCUCCAAA [U30G A39G]	0.000352 ± 8.4e-05 s⁻¹	0.0183 ± 0.007 s⁻¹	0.000654 ± 0.00021 s⁻¹	0.00681 ± 0.0014 s⁻¹	0.00235 ± 0.00063 s⁻¹
AUAAAAGCGCCAGAACUACAGAAAUGUAGAUGACGAGGAGGAGGUUUAUCGAAUUUUCACCGGAUGCCUCAAAA [U30A G59A G60C C71A]	< 1e-05 s⁻¹	< 1e-05 s⁻¹			
AUAAAAGCGCCAGAACUACAGAAAUGUAGGUGUCGAGGAGGAGGUUUAUCGAAUUAUCGGCGUAUUCCUCCAAA [U30G A33U U56A G63U G66U]	< 1e-05 s⁻¹	< 1e-05 s⁻¹			
AUAAAAGCGCCAGAACUACAGAAAUGUAGCUGACGAGGAGGCGGUUUAUCGAAUUUUCGGCGGAUGCCUCCAAA [U30C A42C]	< 1e-05 s⁻¹	< 1e-05 s⁻¹	< 1e-05 s⁻¹	< 1e-05 s⁻¹	
AUAAAAGCGCCAGAACUACAGAAAUGUAGGUGACGAGGAGGAGGUUUAUCGCAUUUUCGGCGGAGGGCUUCAAA [U30G A52C U65G C67G C70U]	< 1e-05 s⁻¹				
AUAAAAGCGCCAGAACUACAGAAAUGUAUGUGACGAGGAGGACGUUUAUCGAAUUUUCGGCGGAUGCGUCCAAA [G29U U30G G43C C68G]	0.000152 ± 2.6e-05 s⁻¹	0.0065 ± 0.0015 s⁻¹			
AUAAAAGCGCCAGAACUACAGAAAUGUAGCUGACGAGGAGGAGGUUUAACGAAUUUUCGGCGGAUGCCUCCAAA [U30C U49A]	< 1e-05 s⁻¹		< 1e-05 s⁻¹		< 1e-05 s⁻¹
AUAAAAGCGCCAGAACUACAGAAAUGUAGGUGACGAGGAGGGGGUUUAUCGAAUUUUCGGCGGAUGCCUCCAAA [U30G A42G]	0.000448 ± 7.5e-05 s⁻¹	0.0206 ± 0.0039 s⁻¹	0.000561 ± 0.00012 s⁻¹	0.0119 ± 0.0032 s⁻¹	0.00469 ± 0.001 s⁻¹
AUAAAAGCGCCAGAACUACAGAAAUGUAGCAGACUACGAGGAGGUUUAUCGAAUUUUCGGCGGAUGCCUCCAAA [U30C U31A G35U G37C]	< 1e-05 s⁻¹				
AUAAAAGCGCCAGAACUACAGAAAUGUAGCUGACGAGGAGGAGGUUUAUCGAAUUUUCAGCGGAUGCUUCCAAA [U30C G59A C68U]	< 1e-05 s⁻¹	< 1e-05 s⁻¹			
AUAAAAGCGCCAGAACUACAGAAAUGUAGAUGACAAGGAGGAGGUUUAUCGAAUUUUCAGCGGAUGCCUCGAAA [U30A G35A G59A C71G]	< 1e-05 s⁻¹			< 1e-05 s⁻¹	
AUAAAAGCGCCAGAACUACAGAAAUGUAGAUGACGAGGAGGAGGUUUAUCGAAUUUUCUGCGGAUGCCUCCAAA [U30A G59U]	< 1e-05 s⁻¹				
AUAAAAGCGCCAGAACUACAGAAAUGUAGCUGCCGAGGAGGAGGUUGAUCGAAUUUUCGGCGGAUGCCUCCAAA [U30C A33C U47G]	< 1e-05 s⁻¹	< 1e-05 s⁻¹			
AUAAAAGCGCCAGAACUACAGAAAUGUAGCUGACGAGGAGACGGUUUAUGGAAUUUUCGGCGGAUGCCUCCAAA [U30C G41A A42C C50G]	< 1e-05 s⁻¹	< 1e-05 s⁻¹			
AUAAAAGCGCCAGAACUACAGAAAUGUAGCUGAUGAGGAGGAGGUUUAUCGAAUUUUCGGCGGAUGCCUCCAAA [U30C C34U]	< 1e-05 s⁻¹				< 1e-05 s⁻¹
AUAAAAGCGCCAGAACUACAGAAAUGUAGAUGACGAGGAGGAGGCUUCUCGAAUUUUCGGCGGAUGCCUCCAAA [U30A U45C A48C]	< 1e-05 s⁻¹				
